Positions count from the first letter of the chain named.
B1: humanized antibody 18A10 H2L2 (antibody, V domains shown)
VH: EVQLVQSGGGLVQPGGSLKLSCAASGFTFSSYGMSWVRQAPGKGLDWVATISGGGRDTYYPDSVKGRFTISRDNSKNNLYLQMNSLRAEDTALYYCARQKGEAWFAYWGQGTLVTVSS
VL: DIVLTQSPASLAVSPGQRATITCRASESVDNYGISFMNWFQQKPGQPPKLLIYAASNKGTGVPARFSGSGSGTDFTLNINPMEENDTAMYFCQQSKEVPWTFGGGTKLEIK
notes: also called H2L2 antibody
B2: humanized antibody 18A10 H1L1 (antibody, V domains shown)
VH: B1 VH with A40T, G42E
VL: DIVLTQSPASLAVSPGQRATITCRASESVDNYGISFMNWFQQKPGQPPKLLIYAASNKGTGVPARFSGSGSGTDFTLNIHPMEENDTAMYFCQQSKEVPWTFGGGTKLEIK
notes: also called H1L1 antibody
B3: humanized antibody 18A10 H3L3 (antibody, V domains shown)
VH: B1 VH with N78T, L93V
VL: DIVLTQSPASLAVSPGQRATITCRASESVDNYGISFMNWYQQKPGQPPKLLIYAASNKATGVPARFSGSGSGTDFTLNINPMEANDTAVYFCQQSKEVPWTFGGGTKLEIK
notes: also called H3L3 antibody

Columns and labels:
[1] = molecular target: T1, PD-1-mIgGFc fusion protein; experiment: ELISA on coated PD-1-mFc; antibody 1 µg/ml diluted 1:729; replicate 1
T1 construct: also called PD-1-mFc; PD-1-mIgGFc antigen
Protocol: (§1) An ELISA plate was coated with PD-1-mFc antigen in a concentration of 0.5 μg/ml (50 μl per well) by incubation at 4° C. overnight.
(§2) After the ELISA plate was washed with the PBST buffer for three times and gently patted to dryness again, TMB as a developer in 50 μl per well was added for incubation at room temperature for 5 to 10 minutes.
(§3) The absorbance of solution in each well was measured with the microplate reader under a wavelength of 450 nm.

[2] = molecular target: T2, PD-1 antigen stably expressed on the surface of BB007 cells (UniProt Q15116 25-288, limits assumed); experiment: flow cytometry on BB007 cells; antibody 5 nM
T2 construct: whole, on cells; also called target protein PD-1 on the surface of the BB007 cell
Protocol: (§4) The binding efficiencies of H1L1, H2L2 and H3L3 antibodies to PD-1 antigen stably expressed on the surface of cells (named as BB007 cells) were determined by flow cytometry. The BB007 cells were obtained by routine trypsin digestion, and then washed with PBS buffer once, followed by dividing into several tubes, with 2×10⁵ cells per tube. After dilution into concentrations of 20 nM, 10 nM, 5 nM, 1 nM, 0.1 nM and 0 nM with the PBS buffer containing 1% BSA for each of the H1L1, H2L2 and H3L3 antibodies, individual antibodies in a volume of 100 μl were added into individual tubes and incubated on ice for 1 hour. After the mixture was washed with the PBS buffer once, 100 μl FITC-Goat-Anti-Human IgG (in 1:500 dilution) was added for each tube and incubated on ice for 1 hour, followed by addition of 300 μl the PBS buffer for detecting fluorescence signal with a FITC channel on the flow cytometer.

[3] = molecular target: T1, PD-1-mIgGFc fusion protein; experiment: competitive ELISA on coated PD-1-mIgGFc; competitor PDL1-mIgG2aFc 0.3 µg/ml; antibody 1.5 µg/ml; replicate 1
Protocol: (§5) A 96-well ELISA plate was coated with PD-1-mIgGFc antigen in a concentration of 0.5 μg/ml (50 μl per well) by incubation at 4° C. overnight.
(§6) The 18A10 H1L1, 18A10 H2L2 and 18A10 H3L3 antibodies each were diluted from 3 μg/ml in series by 1:3, with 7 gradient antibody solutions obtained for each antibody. The 7 gradient antibody solutions for each antibody and the blank PBS control (50 μl per well) were respectively added into the blocked 96-well ELISA plate for incubation at room temperature for 10 minutes.
as §3

[4] = molecular target: T1, PD-1-mIgGFc fusion protein; experiment: competitive ELISA on coated PD-1-mIgGFc; competitor PDL1-mIgG2aFc 0.3 µg/ml; antibody 1.5 µg/ml diluted 1:3; replicate 2
Protocol: as §5, §6
(§7) After the 96-well ELISA plate was washed with the PBST buffer for three times and gently patted to dryness, goat anti-mouse IgG-HRP (H+L) as a secondary antibody in 1:5000 dilution (50 μl per well) was added for incubation at 37° C. for 1 hour.

[5] = molecular target: biotin-labeled PD-1 antigen (UniProt Q15116 25-167, limits assumed, biotin-labeled (site not stated)); experiment: BLI (Fortebio), biotin-labeled PD-1 on SA sensor
Protocol: Kinetic characteristic parameters of 18A10 H1L1, H2L2 and H3L3 antibodies were determined using the Fortebio molecule interaction instrument.
The biotin-labeled PD-1 antigen was immobilized on the surface of the SA sensor. […] Assays for H2L2 and H3L3 are the same as H1L1. Results of kinetic characteristic parameters of the H1L1, H2L2 and H3L3 antibodies are shown in Table 4, FIG. 4, FIG. 5 and FIG. 6.

[6] = molecular target: T1, PD-1-mIgGFc fusion protein; experiment: ELISA on coated PD-1-mFc; antibody 1 µg/ml diluted 1:3; replicate 2
Protocol: as §1, §2, §3

[7] = molecular target: T1, PD-1-mIgGFc fusion protein; experiment: competitive ELISA on coated PD-1-mIgGFc; competitor PDL1-mIgG2aFc 0.3 µg/ml; antibody 1.5 µg/ml diluted 1:243; replicate 1
Protocol: as §5, §6, §7

[8] = molecular target: T1, PD-1-mIgGFc fusion protein; experiment: ELISA on coated PD-1-mFc; antibody 1 µg/ml diluted 1:27; replicate 1
Protocol: as §1, §2, §3

[9] = molecular target: T2, PD-1 antigen stably expressed on the …; experiment: flow cytometry on BB007 cells
Protocol: as §4

[10] = molecular target: T1, PD-1-mIgGFc fusion protein; experiment: ELISA on coated PD-1-mFc; antibody 1 µg/ml diluted 1:3; replicate 1
Protocol: as §1, §2, §3

[11] = molecular target: T1, PD-1-mIgGFc fusion protein; experiment: competitive ELISA on coated PD-1-mIgGFc; competitor PDL1-mIgG2aFc 0.3 µg/ml; antibody 1.5 µg/ml diluted 1:729; replicate 2
Protocol: as §5, §6, §3

[12] = molecular target: T1, PD-1-mIgGFc fusion protein; experiment: ELISA on coated PD-1-mFc; antibody 1 µg/ml diluted 1:243; replicate 1
Protocol: as §1, §2, §3

[13] = molecular target: T1, PD-1-mIgGFc fusion protein; experiment: competitive ELISA on coated PD-1-mIgGFc; competitor PDL1-mIgG2aFc 0.3 µg/ml; antibody 1.5 µg/ml diluted 1:27; replicate 2
Protocol: as §5, §6, §3

[14] = molecular target: T1, PD-1-mIgGFc fusion protein; experiment: ELISA on coated PD-1-mFc; antibody 1 µg/ml diluted 1:243; replicate 2
Protocol: as §1
The ELISA plate coated with the PD-1-mFc antigen was blocked with 1% BSA in the PBS buffer at 37° C. for 2 hours, and washed with 1×PBST buffer containing 1% Tween-20 for three times, with gently patting to dryness.
as §3

[15] = molecular target: T1, PD-1-mIgGFc fusion protein; experiment: competitive ELISA on coated PD-1-mIgGFc; competitor PDL1-mIgG2aFc 0.3 µg/ml; antibody 1.5 µg/ml diluted 1:9; replicate 2
Protocol: as §5
[…] The 7 gradient antibody solutions for each antibody and the blank PBS control (50 μl per well) were respectively added into the blocked 96-well ELISA plate for incubation at room temperature for 10 minutes.
as §7

[16] = molecular target: T1, PD-1-mIgGFc fusion protein; experiment: competitive ELISA on coated PD-1-mIgGFc; competitor PDL1-mIgG2aFc 0.3 µg/ml; antibody 1.5 µg/ml diluted 1:729; replicate 1
Protocol: as §5, §6, §7

[17] = molecular target: T1, PD-1-mIgGFc fusion protein; experiment: ELISA on coated PD-1-mFc; antibody 1 µg/ml diluted 1:81; replicate 2
Protocol: as §1, §2, §3

T1 sequence (chain, as listed by the source limits assumed): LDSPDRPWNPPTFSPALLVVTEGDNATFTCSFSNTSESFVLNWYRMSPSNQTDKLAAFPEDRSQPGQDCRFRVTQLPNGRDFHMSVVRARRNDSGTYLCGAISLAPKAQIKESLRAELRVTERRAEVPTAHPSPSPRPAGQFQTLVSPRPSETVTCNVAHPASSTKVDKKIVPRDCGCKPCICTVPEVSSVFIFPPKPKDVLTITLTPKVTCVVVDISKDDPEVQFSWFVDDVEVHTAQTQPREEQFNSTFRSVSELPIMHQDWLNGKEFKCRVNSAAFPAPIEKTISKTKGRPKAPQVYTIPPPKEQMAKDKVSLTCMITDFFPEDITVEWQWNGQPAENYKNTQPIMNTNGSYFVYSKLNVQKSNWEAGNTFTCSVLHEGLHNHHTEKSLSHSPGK
T2 sequence (Q15116 25-288 limits assumed): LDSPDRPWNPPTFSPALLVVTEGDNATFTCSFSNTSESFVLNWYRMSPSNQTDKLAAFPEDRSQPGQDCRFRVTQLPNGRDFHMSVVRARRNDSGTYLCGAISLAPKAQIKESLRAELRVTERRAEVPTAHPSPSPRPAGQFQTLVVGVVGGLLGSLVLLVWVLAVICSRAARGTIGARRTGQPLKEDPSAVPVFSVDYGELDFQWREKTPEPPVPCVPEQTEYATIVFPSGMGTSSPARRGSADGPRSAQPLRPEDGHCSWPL
Chain of biotin-labeled PD-1 antigen (Q15116 25-167 limits assumed): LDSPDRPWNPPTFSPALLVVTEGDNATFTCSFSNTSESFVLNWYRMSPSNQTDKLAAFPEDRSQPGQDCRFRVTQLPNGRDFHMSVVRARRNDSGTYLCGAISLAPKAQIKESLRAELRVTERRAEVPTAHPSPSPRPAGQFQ

Binder | absorbance at 450 nm [1] | fluorescence intensity [2] | absorbance at 450 nm (competition) [3] | absorbance at 450 nm (competition) [4] | Kd [5] [nM] | koff [5] [s⁻¹] | kon [5] [M⁻¹ s⁻¹] | absorbance at 450 nm [6] | absorbance at 450 nm (competition) [7] | absorbance at 450 nm [8] | EC50 [9] [nM] | absorbance at 450 nm [10] | absorbance at 450 nm (competition) [11] | absorbance at 450 nm [12] | absorbance at 450 nm (competition) [13] | absorbance at 450 nm [14] | absorbance at 450 nm (competition) [15] | absorbance at 450 nm (competition) [16] | absorbance at 450 nm [17]
B1 | 0.226 | 321 | 0.11 | 0.097 | 0.0428 | 9.86e-06 | 231000 | 2.36 | 1.16 | 1.78 | 1.59 | 2.13 | 1.19 | 0.545 | 0.903 | 0.475 | 0.506 | 1.2 | 1.14
B2 | 0.186 | 252 | 0.11 | 0.109 | 0.036 | 1.32e-05 | 367000 | 2.34 | 1.26 | 1.62 | 3.38 | 2.35 | 1.3 | 0.45 | 1.04 | 0.431 | 0.586 | 1.35 | 0.834
B3 | 0.2 | 343 | 0.101 | 0.108 | 0.114 | 1.56e-05 | 137000 | 2.09 | 1.2 | 1.58 | 1.68 | 2.29 | 1.24 | 0.432 | 0.986 | 0.377 | 0.678 | 1.28 | 0.809
